In patent US20220064284A1 (Janssen / Centocor, published 2022):

B1: GP5B318 (antibody, mouse IgG2a, kappa, V domains shown)
VH: EVQLVQSGAEVKKPGESLKISCKGSGYSFTSYWIGWVRQMPGKGLEWMGIIYPGDSDTRYSPSFQGQVTISADKSISTAYLQWSSLKASDTAMYYCARGWDYGTGEFDYWGQGTLVTVSS
VL: EIVLTQSPGTLSLSPGERATLSCRASQSIGNWLNWYQQKPGKAPKLLIYYASSLQSGVPSRFSGSGSGTDFTLTISSLQPEDFAVYYCQQSLSFPITFGQGTKVEIKR
notes: made in HEK293 Expi or CHO; also called anti-idiotypic antibody GP5B318; chimeric mAb with human VH/VL and murine IgG2a/k
B2: PE-GP5B318 (antibody, mouse IgG2a, kappa, V domains shown)
VH: B1 VH
VL: B1 VL
modifications: antibody conjugated to R-phycoerythrin, purified to a 1:1 PE:antibody ratio; site not stated
notes: GP5B318 labelled with phycoerythrin (Expedeon kit); also called PE-P5B318; GP5B318 conjugated to R-PE

Tests used:
GP5B305 = molecular target: T1, GP5B305; assay: SPR (ProteOn XPR36), mAb captured on anti-mouse Fc, antigen 50 nM to 0.2 nM in solution
T1 construct: Used as the analyte in the ProteOn assay ('Antigens (scFV Fc Fusions)'); not shown: Hinge/Fc of HC2; all of HC1 (CD3B376 Fab heavy chain with C-terminal BCMB516-LH-scFv); CD3B376 light chain
Method: ProteOn XPR36 system (BioRad) was used to perform binding assays. ProteOn GLC chips (BioRad, Cat #176-5011) were coated with Anti-Mouse Fc antibody. Library Antibodies (Mouse IgG2a) diluted to 0.25 ug/ml to 1 ug/ml to reach approximately 100-200RL. Antigens (scFV Fc Fusions) are associated at 50 nM to 0.2 nM, 1:4 dilutions for 3 minutes. Dissociation for 30 mins. The results of the assay (Table 1 below) show picomolar affinity of GP5B318 with GP5B305. GP5B305 is a bi-specific antibody that includes HCl N-Terminal CD3B376-Fab/C-Terminal BCMB516-LH-scFv* and HC2 N-Terminal GP5B83 N23T, N30S-LH-scFv*.

[1] = molecular target: T2, GPRC5D CAR GP5DB83-HL expressed on SupT1 cells; assay: flow cytometry on GPRC5D CAR (GP5DB83-HL) SupT1 cells, unconjugated GP5B318 detected with PE-goat anti-mouse IgG, PE MFI
T2 construct: Chimeric antigen receptor with the GP5B83 scFv in VH-VL order; also called GP5DB83-HL CAR; CAR 1 (GP5B83-HL)
Method: SupT1 cells expressing GP5DB83-HL were compared to parental CAR-SupT1 cells. SupT1 cells expressing GP5DB83-HL and parental CAR-SupT1 cells were stained with near IR LIVE/DEAD fluorescent reactive dye on ice for 20 mins. After incubation, the cells were washed and resuspended in BSA stain buffer Cells (100,000 cells/well) were plated in a 96 well plate and incubated with increasing concentrations of GP5B318 for 30 minutes on ice with and without 10 μg/mL CAR-Fc Fusion protein, GP5B83_N24T_N315-HL-hu Fc-scFv (GP5B30.002). Following incubation, the samples were washed with BSA stain buffer and stained with PE-goat anti-mouse IgG polyclonal to detect bound antibody on live SupT1 cells. After incubation, washing, and fixation, the samples were acquired on a 10 color FACSCanto II flow cytometer. Analysis was done using FlowJo and the PE median fluorescent intensity of live SupT1 cells is plotted in FIG. 3. […] No binding was detected on CAR-SupT1 parental cells.

[2] = molecular target: T2, GPRC5D CAR GP5DB83-HL expressed on …; assay: flow cytometry on GPRC5D CAR (GP5DB83-HL) SupT1 cells, directly PE-conjugated GP5B318, PE MFI
Method: GP5B318 was conjugated to R-PE as described above and tested for binding to GP5DB83-HL SupT1 in the presence or absence of 10 μg/mL GP5DB83-scFv Fc fusion protein to assess the specificity of GP5B318 binding to GP5DB83-HL CAR and ensure CAR detection was not affected by PE labeling. GP5DB83-HL SupT1 cells were stained with near IR LIVE/DEAD fluorescent reactive dye in 50 mL tube on ice for 20 mins. After incubation, the cells were washed and resuspended in BSA stain buffer to 2×10⁶ cells/mL. 100,000 cells/well were seeded in 96 well plate and incubated with increasing concentrations of PE-GP5B318 and 10 μg/mL GP5DB83-scFv Fc for 45 minutes on ice. After incubation, washing, and fixation, the samples were acquired on a 10 color FACSCanto II flow cytometer. Analysis was performed using FlowJo analysis software and the PE median fluorescent intensity of live SupT1 cells is plotted in FIG. 4.

T1 sequence (scFv, as listed by the source limits assumed): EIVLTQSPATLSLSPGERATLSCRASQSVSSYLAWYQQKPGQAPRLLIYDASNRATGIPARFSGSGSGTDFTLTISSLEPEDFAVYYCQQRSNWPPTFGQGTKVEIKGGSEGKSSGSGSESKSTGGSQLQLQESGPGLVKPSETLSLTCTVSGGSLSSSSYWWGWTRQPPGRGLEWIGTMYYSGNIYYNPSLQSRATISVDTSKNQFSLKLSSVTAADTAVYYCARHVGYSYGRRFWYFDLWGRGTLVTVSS
T2 sequence (chain, as listed by the source limits assumed): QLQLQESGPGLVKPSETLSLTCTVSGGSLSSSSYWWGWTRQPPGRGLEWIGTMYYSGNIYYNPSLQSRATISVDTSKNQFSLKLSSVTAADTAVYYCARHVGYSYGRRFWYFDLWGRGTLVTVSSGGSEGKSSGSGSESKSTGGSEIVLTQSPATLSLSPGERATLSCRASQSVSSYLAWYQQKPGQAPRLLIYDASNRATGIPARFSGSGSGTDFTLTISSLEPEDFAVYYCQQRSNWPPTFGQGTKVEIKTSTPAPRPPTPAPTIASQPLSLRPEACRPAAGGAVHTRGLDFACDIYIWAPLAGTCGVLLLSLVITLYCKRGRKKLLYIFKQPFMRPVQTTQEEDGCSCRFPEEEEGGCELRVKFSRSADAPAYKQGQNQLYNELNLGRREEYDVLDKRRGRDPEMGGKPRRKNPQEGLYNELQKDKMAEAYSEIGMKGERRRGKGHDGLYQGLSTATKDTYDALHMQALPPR

Binder | Kd (GP5B305) | koff (GP5B305) | kon (GP5B305) | EC50 [1] | EC50 [2]
B1 | < 2.9 pM | < 2.9e-05 s⁻¹ | > 1e+07 M⁻¹ s⁻¹ | 0.03 µg/mL | 
B2 |  |  |  |  | 0.1 µg/mL
